Measured values: US8673862 (dated 2014)

T1: angiotensin converting enzyme (ACE) (UniProt P12821)
T1 chain: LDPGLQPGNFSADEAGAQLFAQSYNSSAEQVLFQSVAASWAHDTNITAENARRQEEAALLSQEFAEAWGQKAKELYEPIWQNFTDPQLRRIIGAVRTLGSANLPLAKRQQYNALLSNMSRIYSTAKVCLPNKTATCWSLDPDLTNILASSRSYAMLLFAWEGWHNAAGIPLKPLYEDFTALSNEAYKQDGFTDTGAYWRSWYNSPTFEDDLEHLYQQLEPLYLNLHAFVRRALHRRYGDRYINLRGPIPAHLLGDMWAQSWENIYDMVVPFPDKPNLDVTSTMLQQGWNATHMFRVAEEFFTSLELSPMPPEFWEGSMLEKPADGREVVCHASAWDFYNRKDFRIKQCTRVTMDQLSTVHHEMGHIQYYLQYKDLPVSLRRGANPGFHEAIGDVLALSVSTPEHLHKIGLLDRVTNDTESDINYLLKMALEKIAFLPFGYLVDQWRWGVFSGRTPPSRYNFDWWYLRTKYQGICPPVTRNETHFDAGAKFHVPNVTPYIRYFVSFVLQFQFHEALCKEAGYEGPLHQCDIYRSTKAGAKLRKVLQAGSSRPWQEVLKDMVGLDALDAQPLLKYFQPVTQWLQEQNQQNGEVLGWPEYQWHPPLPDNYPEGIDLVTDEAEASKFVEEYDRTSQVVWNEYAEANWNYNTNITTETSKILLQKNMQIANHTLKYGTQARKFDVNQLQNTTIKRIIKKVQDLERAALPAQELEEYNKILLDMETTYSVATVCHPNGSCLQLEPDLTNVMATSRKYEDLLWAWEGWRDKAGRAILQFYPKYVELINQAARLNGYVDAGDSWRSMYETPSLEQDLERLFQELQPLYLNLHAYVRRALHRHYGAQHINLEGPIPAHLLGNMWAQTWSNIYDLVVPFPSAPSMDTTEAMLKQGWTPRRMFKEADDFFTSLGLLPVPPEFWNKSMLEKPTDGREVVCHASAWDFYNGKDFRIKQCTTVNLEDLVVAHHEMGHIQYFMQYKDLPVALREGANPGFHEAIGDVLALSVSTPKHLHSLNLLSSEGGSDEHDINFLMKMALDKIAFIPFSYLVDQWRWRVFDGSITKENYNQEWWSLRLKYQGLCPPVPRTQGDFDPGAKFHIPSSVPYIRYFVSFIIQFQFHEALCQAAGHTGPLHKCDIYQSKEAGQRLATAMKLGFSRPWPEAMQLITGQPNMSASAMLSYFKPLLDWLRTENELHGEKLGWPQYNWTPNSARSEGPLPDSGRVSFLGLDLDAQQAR


Target: T1, angiotensin converting enzyme (ACE)
Experiment: other, ACE inhibition

Row | Binder | IC50 [µM]
1 | TYA | 526
2 | LF | 83
3 | WN | 368
4 | KK | 921
5 | FV | 979
6 | NDEG | 768
7 | YY | 257
8 | LL | 345
9 | GLF | 83
10 | VVN | 77
11 | PDT | 272

Stronger by IC50, values ahead:

Row | IC50 [µM] | Binder
12 | 64.9 | NSL
13 | 51.1 | FVNHF
14 | 46.2 | TF
15 | 35.5 | VGGS
16 | 26.9 | GNF
17 | 15.6 | TSF
